What is called Kd is the free concentration of one partner at which half of the binding sites on the other are occupied at equilibrium, for simple one-to-one binding.

The values that follow come from patent publication US20050239072, “Device and methods for concentrating prion protein isoforms” (published 2005).

The target in data set [1] is T1, human recombinant prion protein hrPrP (PrP23-231) (Homo sapiens, UniProt P04156 P04156:23-231). The experiment in a line: FP filter. The conditions noted are these: tags: E. coli GST fusion, GST removed by thrombin cleavage; label: 32P internal.
The target in data set [2] is T1, human recombinant prion protein hrPrP …. The experiment in a line: FP filter; no tRNA; 250 mM NaCl, 2 mM MgCl2, 37 C. The note with it: tags: E. coli GST fusion, GST removed by thrombin cleavage.
For data set [3] the target is unchanged. Nature of the data set: pulldown. The note with it: tags: E. coli GST fusion, GST removed by thrombin cleavage; label: none; hybridized to oligo-dT-cellulose.
Data set [4] concerns the target human recombinant PrP90-231 (lacks N-terminal 23-90) (Homo sapiens, UniProt P04156 P04156:90-231).

B1: MNV:AP1 (ssRNA)
RNA: GGGUUCAUAGCCUAUUCGGCUUCGCGCAUGGGAAUUUGAGGGACGAUGGGGAAGUGGGAGCGCGUUUUAAAGGACCUUUUUCCCUCGCGUAGCUAGCUACGCGAGGUGACCCCCCGAAGGGGGGUGCCCC
As for B1, the Kd in data set [1] is 3.8 nM.

B2: RQT157 (ssRNA)
RNA: GGGGUUUCGAACCGGAAUUUGAGGGAUGCCUAGGCAUCCCCCGUGCGUCCCUUUACGAGGGAUUGUCGACUCUAGAGGAUCCGGUACCUGAGGGAUGCCUAGGCAUCCCCGCGCGCCGGUUUCGGACCUCCAGUGCGUGUUACCGCACUGUCGACCC
On to B2, for which the Kd in data set [2] (label: 32P internal) is 56 nM.

B3: RQAAA (RQ11+12 with 3' poly-A15) (ssRNA)
RNA: GGGGUUUCCAACCGGAAUUUGAGGGAUGCCUAGGCAUCCCCCGUGCGUCCCUUUACGAGGGAUUGUCGACUCUAGUCGACGUCUGGGCGAAAAAUGUACGAGAGGACCUUUUCGGUACAGACGGUACCUGAGGGAUGCCUAGGCAUCCCCGCGCGCCGGUUUCGGACCUCCAGUGCGUGUUACCGCACUGUCGACCCAAAAAAAAAAAAAAA
As to B3, the binding result in data set [3] is “binds”.

B4: RQ11+12 (ssRNA)
RNA: GGGGUUUCCAACCGGAAUUUGAGGGAUGCCUAGGCAUCCCCCGUGCGUCCCUUUACGAGGGAUUGUCGACUCUAGUCGACGUCUGGGCGAAAAAUGUACGAGAGGACCUUUUCGGUACAGACGGUACCUGAGGGAUGCCUAGGCAUCCCCGCGCGCCGGUUUCGGACCUCCAGUGCGUGUUACCGCACUGUCGACCC
In the case of B4, in data set [4], the binding result is “no binding”. For the same molecule, in data set [2] (label: 32P internal (alpha-32P CTP)), the Kd is 26 nM.
